US6500927B2 (priority 1998, dated 2002)

What was measured:
[1] = biological target: MOR-1 (mu-opioid receptor-1, full length) (mouse) (UniProt P42866); experiment: competition with ^3H-DAMGO, CHO cell membranes
[2] = biological target: MOR-1C splice variant of the mu-opioid receptor-1 (mouse); experiment: competition with ^3H-DAMGO, CHO cell membranes
[3] = biological target: MOR-1D splice variant of the mu-opioid receptor-1 (mouse) (UniProt P42866); experiment: competition with ^3H-DAMGO, CHO cell membranes
[4] = biological target: MOR-1E splice variant of the mu-opioid receptor-1 (mouse) (UniProt P42866); experiment: competition with ^3H-DAMGO, CHO cell membranes
[5] = biological target: MOR-1 (mu-opioid receptor-1, full length) (mouse) (UniProt P42866); experiment: saturation radioligand binding, membranes of stably transfected CHO cells
[6] = biological target: MOR-1C splice variant of the mu-opioid receptor-1 (mouse); experiment: as above
[7] = biological target: MOR-1D splice variant of the mu-opioid receptor-1 (mouse) (UniProt P42866); experiment: as above
[8] = biological target: MOR-1E splice variant of the mu-opioid receptor-1 (mouse) (UniProt P42866); experiment: as above
MOR-1D = biological target: T1, MOR-1D (Mus musculus, UniProt P42866); format: binding; details: MOR-1D vs MOR-1, p<0.05
T1 construct: The cDNA fragments containing the full length MOR-1 or the MOR-1 variants in pCRII-ToPo were subcloned into pcDNA3.1; expressed in transfected cells

MOR-1E = biological target: T2, MOR-1E (Mus musculus, UniProt P42866); format: binding; details: MOR-1E vs MOR-1
T2 construct: The cDNA fragments containing the full length MOR-1 or the MOR-1 variants in pCRII-ToPo were subcloned into pcDNA3.1; expressed in transfected cells

| Substance | Ki [1] [nM] | Ki [2] [nM] | Ki [3] [nM] | Ki [4] [nM] | other results |
| --- | --- | --- | --- | --- | --- |
| [D-Ala^2, MePhe^4, Gly(ol)^5]enkephalin (DAMGO) (peptide) | 1.8 | 0.93 | 0.71 | 1.2 | Kd [5]: 1.75 nM; Kd [6]: 0.93 nM; Kd [7]: 0.72 nM; Kd [8]: 1.2 nM |
| DADLE (peptide) | 2.1 | 3.2 | 1.3 | 2.5 |  |
| [D-Ser^2, Leu^5]enkephalin-Thr^6 [DSLET] |  |  |  |  | Potency against binding to MOR-1D relative to MOR-1 (in words) (MOR-1D): twice as potent |
| [D-Ser^2, Leu^5]enkephalin-Thr^6 (DSLET) (peptide) |  |  |  |  | fold potency against MOR-1 [3]: 2 fold |
| β-endorphin: endogenous opioid peptide |  |  |  |  | Affinity of MOR-1E compared with MOR-1 (MOR-1E): significantly higher affinity |
